# Assay results reported in patent publication US9067981 (Janssen / Centocor, dated 2015).
# T1: Aβ1-10 peptide (immobilized)
# T1 construct: also called Ab1-10
# T1 peptide: DAEFRHDSGY
# T2: Aβ1-7 peptide (amino acids 1-7 of SEQ ID NO:1)
# T2 construct: also called Aβ 2-7 (the part visible in the superimposed models)
# T2 peptide: DAEFRHD
# Key:
# [1] = molecular target: T1, Aβ1-10 peptide (immobilized); assay: BIACORE (SPR), immobilized Aβ1-10, bivalent interaction assumed
# [2] = molecular target: T2, Aβ1-7 peptide (amino acids 1-7 of SEQ …); assay: X-ray crystal structure of the Fab:peptide complex
# [3] = molecular target: T3, Aβ1-40 peptide (amino acids 1-40 of SEQ ID NO:1); assay: comparison of unit cell parameters of the Aβ1-7 and Aβ1-40 crystals
# T3 construct: also called Aβ40
Binder,Kd [1],binding result [2],binding result [3]
"12A11 murine IgG1 kappa monoclonal antibody (antibody, V domains shown) VH: QVTLKESGPGILKPSQTLSLTCSFSGFSLSTSGMSVGWIRQPSGKGLEWLAHIWWDDDKYYNPSLKSRLTISKDTSRNQVFLKITSVDTADTATYYCARRTTTADYFAYWGQGTTLTVSS VL: DVLMTQTPLSLPVSLGDQASISCRSSQSIVHSNGNTYLEWYLQKPGQSPKLLIYKVSNRFSGVPDRFSGSGSGTDFTLKISRVEAEDLGIYYCFQSSHVPLTFGAGTKLELK",8.4 nM,–,–
"Fab fragment of 12A11 (Fab, V domains shown, also called 12A11 Fab) VH: QVTLKESGPGILKPSQTLSLTCSFSGFSLSTSGMSVGWIRQPSGKGLEWLAHIWWDDDKYYNPSLKSRLTISKDTSRNQVFLKITSVDTADTATYYCARRTTTADYFAYWGQGTTLTVSS VL: DVLMTQTPLSLPVSLGDQASISCRSSQSIVHSNGNTYLEWYLQKPGQSPKLLIYKVSNRFSGVPDRFSGSGSGTDFTLKISRVEAEDLGIYYCFQSSHVPLTFGAGTKLELK",–,binds,binds
"Fab fragment of 12B4 (Fab, V domains shown, Fab of the murine IgG2a kappa antibody as crystallized; also called 12B4 Fab) VH: QVTLKESGPGILQPSQTLSLTCSFSGFSLSTNGMGVSWIRQPSGKGLEWLAHIYWDEDKRYNPSLKSRLTISKDTSNNQVFLKITNVDTADTATYYCARRRIIYDVEDYFDYWGQGTTLTVSS VL: DVLMTQTPLSLPVSLGDQASISCRSSQNIVHSNGNTYLEWYLQKPGQSPKLLIYKVSNRFSGVPDRFSGSGSGTDFTLKISRVEAEDLGVYYCFQGSHVPLTFGAGTKLELK",–,binds,–
"12B4 murine IgG2a kappa monoclonal antibody (antibody, V domains shown) VH: QVTLKESGPGILQPSQTLSLTCSFSGFSLSTNGMGVSWIRQPSGKGLEWLAHIYWDEDKRYNPSLKSRLTISKDTSNNQVFLKITNVDTADTATYYCARRRIIYDVEDYFDYWGQGTTLTVSS VL: DVLMTQTPLSLPVSLGDQASISCRSSQNIVHSNGNTYLEWYLQKPGQSPKLLIYKVSNRFSGVPDRFSGSGSGTDFTLKISRVEAEDLGVYYCFQGSHVPLTFGAGTKLELK",24.5 nM,–,–
"Fab fragment of 3D6 (Fab, V domains shown, also called 3D6 Fab) VL: not shown V domain: EVKLVESGGGLVKPGASLKLSCAASGFTFSNYGMSWVRQNSDKRLEWVASIRSGGGRTYYSDNVKGRFTISRENAKNTLYLQMSSLKSEDTALYYCVRYDHYSGSSDYWGQGTTITVSS",–,binds,–
